Reference: patent US20050244864A1, “Development and use of fluorescent probes of unbound analytes” (priority 2004, published 2005)

Legend:
Type in all cases: binding
[1] = Probe fluorescence ratio response to palmitate:BSA complex, relative to ADIFAB2 (ΔR/ΔRAD2); details: for DR/DR PA: palmitate (PA), response relative to ADIFAB2
Experimental: (§1) The intensity ratio (“R” value) for a given probe is determined. The ratio is calculated using the following formula: R=Fλ1/Fλ2 wherein, Fλ1, is the measured fluorescence intensities (intensity of sample with probe present minus intensity of sample without probe present) at wavelength 1 and Fλ2 is the measured fluorescence intensities (intensity of sample with probe present minus intensity of sample without probe present) at wavelength 2. Then, for a given probe, ΔR, the difference in R value between the measurement in the presence of the analyte and in the absence of the analyte, is calculated as follows: ΔR=R+analyte−R0 The ΔR value for a given probe is then compared to a reference probe, for example, ADIFAB or ADIFAB2, by ΔR/ΔRreference. This value is an indication of how dissimilar the new probe (derived by mutation of the template) is to the reference. By this method, probes with new and useful characteristics may be identified. Measurements of fluorescence intensities are obtained using standard techniques.
(§2) Mutant probes were screened in 96-well plates by fluorescence response to five fatty acids: arachidonate, linolenate, linoleate, oleate, and palmitate. Each fatty acid was prepared as a complex with BSA by slow addition of 50 mM stocks of fatty acid sodium salts at pH 11 to 600 μM BSA in HEPES buffer. During the formation of complexes, 15 μL aliquots were periodically measured with the reference probe, ADIFAB2, to determine the ΔR value upon excitation at 375 nm and fluorescence emission at 550 and 457 nm using a Fluorolog-3 spectrofluorometer (Jobin Yvon) (Richieri et al, Molecular and Cellular Biochemistry (1999), 192:87-94 & Richieri et al, J. Biol. Chem. (1996), 271:31068-31074). Complexes were prepared such that the final ΔR was approximately 0.4 which correspond to [FFAu] ranging from 100 to 1000 nM depending on FFA type. These complexes buffer or clamp the FFAu levels at fixed values and therefore ensure the accurate comparison of different probes with the same FFAu concentrations. In contrast, addition of FFAu alone (i.e. uncomplexed FFA) introduces considerable uncertainty in comparing different probes because the FFAu level will be affected by binding to the dispensing device, the walls of the multi-well plates and to the probe itself. Thus, the terms “buffer” and “clamp” as used in this particular context herein are taken to mean the ability of a carrier macromolecule to complex with an unbound metabolite so that the unbound metabolite is presented accurately for measurement purposes and is prevented from non-specific binding such as binding to laboratory apparatus.
(§3) Plates were prepared and read in two stages. First, complexes and fatty acid free BSA were diluted to 6 μM BSA in HEPES and added to the 96-well plate at 300 μL per well. A MultiProbe II HT (Perkin Elmer) (an automated liquid handling system) was used to facilitate plate preparation for high throughput screening, but any automated or manual pipetting system will suffice. The background fluorescence was then measured at the same wavelengths as used for ADIFAB2 using a Fluorolog-3 spectrofluorometer with an external Micromax 384 fluorescence plate reader (Jobin Yvon). In the second stage, 30 μL aliquots of the mutant probes were added to multiple wells of the plate, one for each fatty acid and one with fatty acid free BSA only, and the fluorescence intensity at each wavelength was again measured on the plate reader. After subtraction of the background fluorescence, the fluorescence ratio of each well was calculated.
(§4) The fluorescence response was quantitatively compared to ADIFAB2 to search for changes in magnitude and fatty acid profile; for example the response to one fatty acid relative to another. For each probe the ratio differences (AR) between wells with each fatty acid compared to a corresponding well with fatty acid free BSA were recorded. […]

[2] = Probe fluorescence ratio response to arachidonate:BSA complex, relative to ADIFAB2 (ΔR/ΔRAD2); details: arachidonate (AA); response relative to ADIFAB2
Experimental: as §1, §2, §3, §4

[3] = Probe fluorescence ratio response to linolenate:BSA complex, relative to ADIFAB2 (ΔR/ΔRAD2); details: linolenate (LNA); response relative to ADIFAB2
Experimental: as §1, §2, §3, §4

[4] = Probe fluorescence ratio response to linoleate:BSA complex, relative to ADIFAB2 (ΔR/ΔRAD2); details: linoleate (LA); response relative to ADIFAB2
Experimental: as §1, §2, §3, §4

[5] = Probe fluorescence ratio response to oleate:BSA complex, relative to ADIFAB2 (ΔR/ΔRAD2); details: oleate (OA); response relative to ADIFAB2
Experimental: as §1, §2, §3, §4

Row | Molecule | response to palmitic acid [1] | DR/DR AA [2] | DR/DR LNA [3] | DR/DR LA [4] | DR/DR OA [5] | DR/DR PA [1]
1 | VQQ: probe L72V R106Q R126Q of rI-FABP (protein, UniProt P02693 2-132, looked up, variant L72V R106Q R126Q, fluorescent label, probe L72V R106Q R126Q of rI-FABP) Fatty acid-binding protein, …: AFDGTWKVDRNENYEKFMEKMGINVVKRKLGAHDNLKLTITQEGNKFTVKESSNFRNIDVVFELGVDFAYSVADGTELTGTWTMEGNKLVGKFKRVDNGKELIAVQEISGNELIQTYTYEGVEAKQIFKKE | does not respond to palmitic acid |  |  |  |  | 
2 | 11D1, L72A (protein, UniProt P02693 2-132, looked up, variant N11D L72A, acrylodan label) Fatty acid-binding protein, …: AFDGTWKVDRDENYEKFMEKMGINVVKRKLGAHDNLKLTITQEGNKFTVKESSNFRNIDVVFELGVDFAYSAADGTELTGTWTMEGNKLVGKFKRVDNGKELIAVREISGNELIQTYTYEGVEAKRIFKKE |  | 0.82 | 0.86 | 0.91 | 0.92 | 0.83
3 | 11F1, L72A (protein, UniProt P02693 2-132, looked up, variant N11F L72A, acrylodan label) Fatty acid-binding protein, …: AFDGTWKVDRFENYEKFMEKMGINVVKRKLGAHDNLKLTITQEGNKFTVKESSNFRNIDVVFELGVDFAYSAADGTELTGTWTMEGNKLVGKFKRVDNGKELIAVREISGNELIQTYTYEGVEAKRIFKKE |  | 0.42 | 0.29 | 0.28 | 0.20 | 0.18
4 | 11I1, L72A (protein, UniProt P02693 2-132, looked up, variant N11I L72A, acrylodan label) Fatty acid-binding protein, …: AFDGTWKVDRIENYEKFMEKMGINVVKRKLGAHDNLKLTITQEGNKFTVKESSNFRNIDVVFELGVDFAYSAADGTELTGTWTMEGNKLVGKFKRVDNGKELIAVREISGNELIQTYTYEGVEAKRIFKKE |  | 0.58 | 0.51 | 0.55 | 0.39 | 1.19
5 | 11Q1, L72A (protein, UniProt P02693 2-132, looked up, variant N11Q L72A, acrylodan label) Fatty acid-binding protein, …: AFDGTWKVDRQENYEKFMEKMGINVVKRKLGAHDNLKLTITQEGNKFTVKESSNFRNIDVVFELGVDFAYSAADGTELTGTWTMEGNKLVGKFKRVDNGKELIAVREISGNELIQTYTYEGVEAKRIFKKE |  | 1.33 | 1.43 | 1.37 | 1.32 | 1.19
6 | 11S5, L72A (protein, UniProt P02693 2-132, looked up, variant N11S L72A, acrylodan label) Fatty acid-binding protein, …: AFDGTWKVDRSENYEKFMEKMGINVVKRKLGAHDNLKLTITQEGNKFTVKESSNFRNIDVVFELGVDFAYSAADGTELTGTWTMEGNKLVGKFKRVDNGKELIAVREISGNELIQTYTYEGVEAKRIFKKE |  | 0.33 | 0.37 | 0.36 | 0.29 | 0.35
7 | 11W1, L72A (protein, UniProt P02693 2-132, looked up, variant N11W L72A, acrylodan label) Fatty acid-binding protein, …: AFDGTWKVDRWENYEKFMEKMGINVVKRKLGAHDNLKLTITQEGNKFTVKESSNFRNIDVVFELGVDFAYSAADGTELTGTWTMEGNKLVGKFKRVDNGKELIAVREISGNELIQTYTYEGVEAKRIFKKE |  | 0.43 | 0.39 | 0.40 | 0.22 | 0.15
8 | 14Y, 72A wt (protein, UniProt P02693 2-132, looked up, variant L72A, acrylodan label) Fatty acid-binding protein, …: AFDGTWKVDRNENYEKFMEKMGINVVKRKLGAHDNLKLTITQEGNKFTVKESSNFRNIDVVFELGVDFAYSAADGTELTGTWTMEGNKLVGKFKRVDNGKELIAVREISGNELIQTYTYEGVEAKRIFKKE |  | 1.29 | 1.29 | 1.23 | 2.22 | 1.07
9 | 40F2, L72A (protein, UniProt P02693 2-132, looked up, variant I40F L72A, acrylodan label) Fatty acid-binding protein, …: AFDGTWKVDRNENYEKFMEKMGINVVKRKLGAHDNLKLTFTQEGNKFTVKESSNFRNIDVVFELGVDFAYSAADGTELTGTWTMEGNKLVGKFKRVDNGKELIAVREISGNELIQTYTYEGVEAKRIFKKE |  | 0.89 | 0.99 | 0.90 | 0.90 | 0.80
10 | 40V1, L72A (protein, UniProt P02693 2-132, looked up, variant I40V L72A, acrylodan label) Fatty acid-binding protein, …: AFDGTWKVDRNENYEKFMEKMGINVVKRKLGAHDNLKLTVTQEGNKFTVKESSNFRNIDVVFELGVDFAYSAADGTELTGTWTMEGNKLVGKFKRVDNGKELIAVREISGNELIQTYTYEGVEAKRIFKKE |  | 1.20 | 1.28 | 1.24 | 1.21 | 0.91
11 | 47C3, L72A (protein, UniProt P02693 2-132, looked up, variant F47C L72A, acrylodan label) Fatty acid-binding protein, …: AFDGTWKVDRNENYEKFMEKMGINVVKRKLGAHDNLKLTITQEGNKCTVKESSNFRNIDVVFELGVDFAYSAADGTELTGTWTMEGNKLVGKFKRVDNGKELIAVREISGNELIQTYTYEGVEAKRIFKKE |  | 0.32 | 0.35 | 0.37 | 0.35 | 0.23
12 | 47G1, L72A (protein, UniProt P02693 2-132, looked up, variant F47G L72A, acrylodan label) Fatty acid-binding protein, …: AFDGTWKVDRNENYEKFMEKMGINVVKRKLGAHDNLKLTITQEGNKGTVKESSNFRNIDVVFELGVDFAYSAADGTELTGTWTMEGNKLVGKFKRVDNGKELIAVREISGNELIQTYTYEGVEAKRIFKKE |  | 0.51 | 0.63 | 0.66 | 0.59 | 0.32
13 | 47H1, L72A (protein, UniProt P02693 2-132, looked up, variant F47H L72A, acrylodan label) Fatty acid-binding protein, …: AFDGTWKVDRNENYEKFMEKMGINVVKRKLGAHDNLKLTITQEGNKHTVKESSNFRNIDVVFELGVDFAYSAADGTELTGTWTMEGNKLVGKFKRVDNGKELIAVREISGNELIQTYTYEGVEAKRIFKKE |  | 0.63 | 0.70 | 0.74 | 0.67 | 0.43
14 | 47M2, L72A (protein, UniProt P02693 2-132, looked up, variant F47M L72A, acrylodan label) Fatty acid-binding protein, …: AFDGTWKVDRNENYEKFMEKMGINVVKRKLGAHDNLKLTITQEGNKMTVKESSNFRNIDVVFELGVDFAYSAADGTELTGTWTMEGNKLVGKFKRVDNGKELIAVREISGNELIQTYTYEGVEAKRIFKKE |  | 1.00 | 0.97 | 0.99 | 0.95 | 0.83
15 | 47S1, L72A (protein, UniProt P02693 2-132, looked up, variant F47S L72A, acrylodan label) Fatty acid-binding protein, …: AFDGTWKVDRNENYEKFMEKMGINVVKRKLGAHDNLKLTITQEGNKSTVKESSNFRNIDVVFELGVDFAYSAADGTELTGTWTMEGNKLVGKFKRVDNGKELIAVREISGNELIQTYTYEGVEAKRIFKKE |  | 0.61 | 0.69 | 0.66 | 0.64 | 0.34
16 | 47T1, L72A (protein, UniProt P02693 2-132, looked up, variant F47T L72A, acrylodan label) Fatty acid-binding protein, …: AFDGTWKVDRNENYEKFMEKMGINVVKRKLGAHDNLKLTITQEGNKTTVKESSNFRNIDVVFELGVDFAYSAADGTELTGTWTMEGNKLVGKFKRVDNGKELIAVREISGNELIQTYTYEGVEAKRIFKKE |  | 0.68 | 0.74 | 0.77 | 0.74 | 0.46
